The numbers were not newly measured in article PMC3849016, which cites them from elsewhere.

In general, Kd refers to the equilibrium constant for the complex coming apart.

In the data set the target is VEGFR2 (vascular endothelial growth factor receptor 2) (UniProt P35968). To be noted: printed Z = 5-N-(benzylcarboxyamide)-2'-deoxyuridine (BzdU), written here as U at every Z; all other residues are DNA; 5' H2N-C6; not stated for the supplier ….
UniProt P35968, sequence (P35968 whole entry): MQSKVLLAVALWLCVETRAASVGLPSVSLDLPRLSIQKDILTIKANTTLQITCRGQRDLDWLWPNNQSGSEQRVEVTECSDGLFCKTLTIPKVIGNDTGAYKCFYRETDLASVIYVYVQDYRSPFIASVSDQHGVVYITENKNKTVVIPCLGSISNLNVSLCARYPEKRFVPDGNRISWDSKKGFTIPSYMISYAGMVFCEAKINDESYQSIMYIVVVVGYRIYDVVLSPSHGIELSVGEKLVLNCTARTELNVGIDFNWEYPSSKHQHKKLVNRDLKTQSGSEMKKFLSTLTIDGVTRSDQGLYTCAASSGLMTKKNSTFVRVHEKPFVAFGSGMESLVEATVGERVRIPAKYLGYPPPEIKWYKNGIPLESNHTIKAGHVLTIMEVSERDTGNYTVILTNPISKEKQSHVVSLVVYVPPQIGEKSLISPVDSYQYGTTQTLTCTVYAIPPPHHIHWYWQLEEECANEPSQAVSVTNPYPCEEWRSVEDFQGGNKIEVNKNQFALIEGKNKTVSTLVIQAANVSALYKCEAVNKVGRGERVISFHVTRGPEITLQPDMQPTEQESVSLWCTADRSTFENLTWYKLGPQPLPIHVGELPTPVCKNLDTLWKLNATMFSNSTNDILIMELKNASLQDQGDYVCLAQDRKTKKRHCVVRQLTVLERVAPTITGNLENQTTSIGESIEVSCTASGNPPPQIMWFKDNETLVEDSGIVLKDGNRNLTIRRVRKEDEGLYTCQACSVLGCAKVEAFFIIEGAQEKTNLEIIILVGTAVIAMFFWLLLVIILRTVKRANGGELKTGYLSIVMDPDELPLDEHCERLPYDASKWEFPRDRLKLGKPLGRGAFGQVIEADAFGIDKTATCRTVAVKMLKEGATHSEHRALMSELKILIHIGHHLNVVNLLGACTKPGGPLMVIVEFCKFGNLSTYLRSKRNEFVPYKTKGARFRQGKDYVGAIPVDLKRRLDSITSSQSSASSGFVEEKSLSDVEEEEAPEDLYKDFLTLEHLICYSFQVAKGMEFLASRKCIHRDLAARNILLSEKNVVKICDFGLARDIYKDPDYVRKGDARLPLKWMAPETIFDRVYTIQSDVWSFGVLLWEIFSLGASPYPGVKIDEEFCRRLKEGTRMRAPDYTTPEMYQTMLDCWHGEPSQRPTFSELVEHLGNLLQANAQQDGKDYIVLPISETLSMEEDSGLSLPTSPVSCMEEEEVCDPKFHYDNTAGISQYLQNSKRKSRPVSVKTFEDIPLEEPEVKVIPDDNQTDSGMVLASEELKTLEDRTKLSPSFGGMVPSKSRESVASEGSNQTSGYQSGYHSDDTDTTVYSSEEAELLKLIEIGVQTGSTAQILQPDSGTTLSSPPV

For the sequence “ACGAGCUACGACGUCUGGUGUAAUUUAUAAAGACACUGUGUAUAUCAACAA [anti-VEGFR2 DNA aptamer (Aptamer Science Cat. 186)]”, the Kd is 0.12 nM.
